In the Human Domainome abundance scans (Beltran et al. 2025):
± gives the uncertainty stated by the source.

B1: Intersectin-2, residues 1129 to 1183; numbered along this chain, Q9NZM3 (parent)
chain: VCQVIAMYDYAANNEDELSFSKGQLINVMNKDDPDWWQGEINGVTGLFPSNYVKM

Variants of: B1
Assay: abundance fitness (aPCA) (normalised: wild type 0, dead -1); higher = more abundant; growth selection in yeast, the domain comes from the species named
Settings: Homo sapiens

VCQVIAMYDYAANNEDELSFSKGQLILVMNKDDPDWWQGEINGVTGLFPSNYVKM [N27L] and VCQVIAMYDYAANNEDELSFSKGQLIVVMNKDDPDWWQGEINGVTGLFPSNYVKM [N27V] are within error of each other in abundance fitness: -0.07 ± 0.029 for the first, -0.098 ± 0.043 for the second.

VCQVIAMYDYAANNEDELSFSKGQLICVMNKDDPDWWQGEINGVTGLFPSNYVKM [N27C] and VCQVIAMYDYAANNEDELSFSKGQLIRVMNKDDPDWWQGEINGVTGLFPSNYVKM [N27R] are within error of each other in abundance fitness: -0.046 ± 0.03 for the first, -0.037 ± 0.031 for the second.

VCQVIAMYDYAANNEDELSFSKGQLIKVMNKDDPDWWQGEINGVTGLFPSNYVKM [N27K] and VCQVIAMYDYAANNEDELSFSKGQLIHVMNKDDPDWWQGEINGVTGLFPSNYVKM [N27H] are within error of each other in abundance fitness: -0.052 ± 0.035 for the first, -0.089 ± 0.053 for the second.

VCQVIAMYDYAANNEDELSFSKGQLIIVMNKDDPDWWQGEINGVTGLFPSNYVKM [N27I] and VCQVIAMYDYAANNEDELSFSKGQLIYVMNKDDPDWWQGEINGVTGLFPSNYVKM [N27Y] are within error of each other in abundance fitness: -0.015 ± 0.06 for the first, -0.081 ± 0.039 for the second.

Compared with VCQVIAMYDYAANNEDELSFSKGQLITVMNKDDPDWWQGEINGVTGLFPSNYVKM [N27T], VCQVIAMYDYAANNEDELSFSKGQLIPVMNKDDPDWWQGEINGVTGLFPSNYVKM [N27P] is lower in abundance fitness: -0.043 ± 0.055 for the first, -0.351 ± 0.06 for the second.

VCQVIAMYDYAANNEDELSFSKGQLIFVMNKDDPDWWQGEINGVTGLFPSNYVKM [N27F] and VCQVIAMYDYAANNEDELSFSKGQLIGVMNKDDPDWWQGEINGVTGLFPSNYVKM [N27G] are within error of each other in abundance fitness: -0.112 ± 0.045 for the first, -0.122 ± 0.036 for the second.

VCQVIAMYDYAANNEDELSFSKGQLIEVMNKDDPDWWQGEINGVTGLFPSNYVKM [N27E] and VCQVIAMYDYAANNEDELSFSKGQLISVMNKDDPDWWQGEINGVTGLFPSNYVKM [N27S] are within error of each other in abundance fitness: 0.039 ± 0.054 for the first, -0.05 ± 0.037 for the second.

VCQVIAMYDYAANNEDELSFSKGQLIMVMNKDDPDWWQGEINGVTGLFPSNYVKM [N27M] and VCQVIAMYDYAANNEDELSFSKGQLIQVMNKDDPDWWQGEINGVTGLFPSNYVKM [N27Q] are within error of each other in abundance fitness: -0.02 ± 0.05 for the first, 0.012 ± 0.051 for the second.

VCQVIAMYDYAANNEDELSFSKGQLIWVMNKDDPDWWQGEINGVTGLFPSNYVKM [N27W] and VCQVIAMYDYAANNEDELSFSKGQLINVGNKDDPDWWQGEINGVTGLFPSNYVKM [M29G] are within error of each other in abundance fitness: -0.123 ± 0.055 for the first, -0.065 ± 0.032 for the second.

VCQVIAMYDYAANNEDELSFSKGQLINVANKDDPDWWQGEINGVTGLFPSNYVKM [M29A] and VCQVIAMYDYAANNEDELSFSKGQLINVKNKDDPDWWQGEINGVTGLFPSNYVKM [M29K] are within error of each other in abundance fitness: -0.016 ± 0.036 for the first, -0.075 ± 0.065 for the second.

VCQVIAMYDYAANNEDELSFSKGQLINVHNKDDPDWWQGEINGVTGLFPSNYVKM [M29H] and VCQVIAMYDYAANNEDELSFSKGQLINVDNKDDPDWWQGEINGVTGLFPSNYVKM [M29D] are within error of each other in abundance fitness: -0.06 ± 0.07 for the first, -0.077 ± 0.056 for the second.

VCQVIAMYDYAANNEDELSFSKGQLINVCNKDDPDWWQGEINGVTGLFPSNYVKM [M29C] and VCQVIAMYDYAANNEDELSFSKGQLINVINKDDPDWWQGEINGVTGLFPSNYVKM [M29I] are within error of each other in abundance fitness: -0.022 ± 0.039 for the first, -0.036 ± 0.061 for the second.

VCQVIAMYDYAANNEDELSFSKGQLINVENKDDPDWWQGEINGVTGLFPSNYVKM [M29E] and VCQVIAMYDYAANNEDELSFSKSQLINVMNKDDPDWWQGEINGVTGLFPSNYVKM [G23S] are within error of each other in abundance fitness: -0.006 ± 0.038 for the first, -0.07 ± 0.031 for the second.

First: VCQVIAMYDYAANNEDELSFSKYQLINVMNKDDPDWWQGEINGVTGLFPSNYVKM [G23Y]
Second: VCQVIAMYDYAANNEDELSFSKVQLINVMNKDDPDWWQGEINGVTGLFPSNYVKM [G23V]
The abundance fitness of the first is higher: -0.047 ± 0.066 for the first, -0.903 ± 0.069 for the second.

VCQVIAMYDYAANNEDELSFSKTQLINVMNKDDPDWWQGEINGVTGLFPSNYVKM [G23T] and VCQVIAMYDYAANNEDELSFSKWQLINVMNKDDPDWWQGEINGVTGLFPSNYVKM [G23W] are within error of each other in abundance fitness: -0.21 ± 0.048 for the first, -0.201 ± 0.036 for the second.

VCQVIAMYDYAANNEDELSFSKQQLINVMNKDDPDWWQGEINGVTGLFPSNYVKM [G23Q] and VCQVIAMYDYAANNEDELSFSKRQLINVMNKDDPDWWQGEINGVTGLFPSNYVKM [G23R] are within error of each other in abundance fitness: -0.181 ± 0.048 for the first, -0.195 ± 0.028 for the second.

VCQVIAMYDYAANNEDELSFSKGQLINQMNKDDPDWWQGEINGVTGLFPSNYVKM [V28Q] and VCQVIAMYDYAANNEDELSFSKGQLINKMNKDDPDWWQGEINGVTGLFPSNYVKM [V28K] are the same in abundance fitness: -1.04 ± 0.24 for the first, -1.04 ± 0.23 for the second.

Going from VCQVIAMYDYAANNEDELSFSKGQLINRMNKDDPDWWQGEINGVTGLFPSNYVKM [V28R] to VCQVIAMYDYAANNEDELSFSKGQLINLMNKDDPDWWQGEINGVTGLFPSNYVKM [V28L], the abundance fitness rises from -0.718 ± 0.056 to -0.048 ± 0.046.

Compared with VCQVIAMYDYAANNEDELSFSKGQLINGMNKDDPDWWQGEINGVTGLFPSNYVKM [V28G], VCQVIAMYDYAANNEDELSFSKGQLINCMNKDDPDWWQGEINGVTGLFPSNYVKM [V28C] is higher in abundance fitness: -0.937 ± 0.058 for the first, -0.077 ± 0.063 for the second.

VCQVIAMYDYAANNEDELSFSKGQLINFMNKDDPDWWQGEINGVTGLFPSNYVKM [V28F] and VCQVIAMYDYAANNEDELSFSKGQLINYMNKDDPDWWQGEINGVTGLFPSNYVKM [V28Y] are within error of each other in abundance fitness: -0.778 ± 0.07 for the first, -0.87 ± 0.39 for the second.

Compared with VCQVIAMYDYAANNEDELSFSKGQLINEMNKDDPDWWQGEINGVTGLFPSNYVKM [V28E], VCQVIAMYDYAANNEDELSFSKGQLINIMNKDDPDWWQGEINGVTGLFPSNYVKM [V28I] is higher in abundance fitness: -0.996 ± 0.15 for the first, 0.006 ± 0.05 for the second.

Going from VCQVIAMYDYAANNEDELSFSKGQLINNMNKDDPDWWQGEINGVTGLFPSNYVKM [V28N] to VCQVIAMYDYAANNEDELSFSKGQLINAMNKDDPDWWQGEINGVTGLFPSNYVKM [V28A], the abundance fitness rises from -1.01 ± 0.15 to -0.371 ± 0.044.

VCQVIAMYDYAANNEDELSFSKGQLINPMNKDDPDWWQGEINGVTGLFPSNYVKM [V28P] and VCQVIAMYDYAANNEDELSFSKGQLINSMNKDDPDWWQGEINGVTGLFPSNYVKM [V28S] are within error of each other in abundance fitness: -0.882 ± 0.053 for the first, -0.94 ± 0.068 for the second.

Going from VCQVIAMYDYAANNEDELSFSKGQLINMMNKDDPDWWQGEINGVTGLFPSNYVKM [V28M] to VCQVIAMYDYAANNEDELSFSKGQLINWMNKDDPDWWQGEINGVTGLFPSNYVKM [V28W], the abundance fitness falls from -0.155 ± 0.06 to -0.963 ± 0.15.
